From paper PMC3999168

Test system: LL-37 (native) (human)
Test: EMSA
Details: EMSA with 5' 6-FAM PCR products, as previously published; buffer, salt, pH and temperature not in the material

Substance	Kd [µM]
algT (algU) fragment	12.8
lecB fragment	12.8
mucA fragment	12.8
